This passage reports IC50, relative binding ratio (IC50 of standard peptide / IC50 of test peptide) and relative binding ratio results from patent US20040037843A1.

Common to all, as to conditions: remark: other sources report otherwise
The target in experiment [1] is HLA-A*6802 (human).
Experiment [2] has as its target HLA-A*0201 (human). Nature of the experiment: competition with 125I-labelled standard peptide for purified HLA.
Experiment [3] has as its target HLA-A*1101 (human).
Experiment [4] deals with HLA-A*0203 (human). Nature of the experiment: competition with 125I-labelled standard peptide for purified HLA.
The target of experiment [5] is HLA-A*0202 (human). The experiment is described as above.
In experiment [6] the target is HLA-A*0201 (human).
Experiment [7] addresses HLA-A*0203 (human).
The next experiment addresses HLA-A*0101 (human).
Experiment [8] deals with HLA-A*0203 (human). This is another data set of the same source.
For experiment [9], the target named is HLA-A*0201 (human). This is another data set of the same source.
For experiment [10], the target named is HLA-A*0201 (human). This is another data set of the same source.
For experiment [11], the target named is HLA-A*0201 (human). This is another data set of the same source.
In experiment [12] the target is HLA-A*0202 (human).
For experiment [13], the target named is HLA-A*0203 (human). This is another data set of the same source.
Experiment [14] has as its target HLA-A*0206 (human).
The target of experiment [15] is HLA-A*0201 (human). As to the kind of experiment: competition with 125I-labeled probe peptide for purified HLA, gel filtration. Background: Size exclusion chromatography separates by hydrodynamic size, large species first.
In experiment [16] the target is HLA-A*0206 (human). Described as above.
Experiment [17] concerns the target HLA-A*6802 (human). Described as above.
Experiment [18] deals with HLA-A*0201 (human). Nature of the experiment: competition with 125I-labelled probe peptide on purified HLA.
The target of experiment [19] is HLA-A*0202 (human). The description is as above.
Experiment [20] addresses HLA-A*0203 (human). Described as above.
For experiment [21], the target named is HLA-A*0206 (human). The description is as above.
The target in experiment [22] is HLA-A*0203 (human). The source holds these as a separate data set.
In experiment [23] the target is HLA-A*0206 (human). As to the kind of experiment: competition with 125I-labelled standard peptide for purified HLA.
Experiment [24] has as its target HLA-A*1101 (human). The source holds these as a separate data set.

Read-outs that look alike come from different tables or passages of the source.

As for KVTEFMLCV [peptide 1418.21, HuK2.191.V9], the IC50 (in general, the concentration at which inhibition is half-maximal) with HLA-A*6802 (human) [1] stood at 6670 nM.
DLMLLRLSEPV [peptide 1419.13, PSA.116.V11 / HuK2.120.V11] displayed an IC50 in the experiment with HLA-A*0201 (human) [2] of 50 nM.
Take VTKFMLCAGR [PSA position 188, 10 amino acids]: the relative binding ratio (IC50 of standard peptide / IC50 of test peptide) with HLA-A*1101 (human) [3] was 0.012.
As for KLQCVDLHVV [peptide 1419.24, PSA.166.V10], the IC50 with HLA-A*0203 (human) [4] stood at 9.5 nM.
In the experiment with HLA-A*0202 (human) [5], VLAGGFFLL [peptide 1126.10, PSM.27] yielded a 50% inhibitory concentration (IC50) of 0.2 nM.
Molecule DLMLLRLSEPV [Peptide 1419.13, HuK2.120.V11] showed an IC50 with HLA-A*0201 (human) [6] of 50 nM.
In the experiment with HLA-A*0202 (human) [5], ALFDIESKV [peptide 1129.08, PSM.711] showed an IC50 of 0.7 nM.
In turn, GLHGQDLFGV [peptide 1419.62, PAP.196.V10] came in with a 50% inhibitory concentration (IC50) with HLA-A*0203 (human) [7] of 3.2 nM.
As to LTQLGMEQHY [PAP peptide, position 70, 10 amino acids], in the experiment with HLA-A*0101 (human), the relative binding ratio (IC50 of standard peptide / IC50 of test peptide) turned out to be 0.62.
STCSGDSGGPL [PSA peptide, position 203, 11 amino acids]: the relative binding ratio with HLA-A*0203 (human) [8] was found to be 0.0092; with HLA-A*0201 (human) [9] it was 0.0005.
Regarding SLSLGFLFLL [peptide 1419.51, PAP.13], the half-inhibitory concentration (IC50) with HLA-A*0201 (human) [10] is 40 nM.
Regarding LLSNDMCARV [peptide 1418.53, HuK2.178.V10], the IC50 in the experiment with HLA-A*0201 (human) [11] worked out at 5.3 nM; with HLA-A*0202 (human) [12] it was 0.7 nM; with HLA-A*0203 (human) [13] it was 4.3 nM; with HLA-A*0206 (human) [14], 10 nM; with HLA-A*6802 (human) [1], 1700 nM.
Consider GTPEGDLVYV [Peptide 1418.29], for which the values for the IC50 with HLA-A*0201 (human) [15], in the experiment with HLA-A*0206 (human) [16] and with HLA-A*6802 (human) [17] were 313 nM, 40 nM and 571 nM, respectively.
As to WVLTAAHCL [Kallikrein 59, 9 amino acids], the relative binding ratio stood at 0.0003 in the experiment with HLA-A*0201 (human) [18], 0.0018 in the experiment with HLA-A*0202 (human) [19], 0.0001 with HLA-A*0203 (human) [20] and 0.016 in the experiment with HLA-A*0206 (human) [21].
In the case of FLRPRSLQCV [Peptide 1419.07, HuK2.165], the IC50 in the experiment with HLA-A*0203 (human) [22] came to 4 nM.
As for RMMNDQLMFL [peptide 1126.06, PSM.662], in the experiment with HLA-A*0206 (human) [23], the IC50 was determined as 40 nM.
On to RAVCGGVLVH [PSA 43, 10 amino acids], for which the relative binding ratio (IC50 of standard peptide / IC50 of test peptide) with HLA-A*1101 (human) [24] worked out at 0.031.
SLHLLSNDMCA [Peptide 1419.14, HuK2.175]: the values for the IC50 in the experiment with HLA-A*0201 (human) [6] and with HLA-A*0203 (human) [22] were 72 nM and 73 nM, respectively.
